T1: Human Id1: Histidine (human, UniProt P41134 1-155, limits assumed)
T1 construct: Fusion protein made in E. coli from vector pGW07; also called h-Id1: his; not shown: His tag
T1 sequence (looked up): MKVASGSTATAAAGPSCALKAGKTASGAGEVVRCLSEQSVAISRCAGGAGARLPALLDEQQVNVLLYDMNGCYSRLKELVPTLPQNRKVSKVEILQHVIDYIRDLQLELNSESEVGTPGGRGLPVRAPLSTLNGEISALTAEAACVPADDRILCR

T2: Mouse Id2: Histidine (mouse, UniProt P41136 1-134, limits assumed)
T2 construct: Fusion protein made in E. coli from vector pGW07; also called m-Id2: His; not shown: His tag
T2 sequence (looked up): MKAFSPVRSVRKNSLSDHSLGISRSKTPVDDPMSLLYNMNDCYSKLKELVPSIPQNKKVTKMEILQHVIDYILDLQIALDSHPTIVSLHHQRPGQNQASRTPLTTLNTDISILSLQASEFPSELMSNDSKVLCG

T3: Human Id2: Histidine (human, UniProt Q02363 1-134, limits assumed)
T3 construct: Fusion protein made in E. coli from vector pGW07; also called h-Id2: His; not shown: His tag
T3 sequence (looked up): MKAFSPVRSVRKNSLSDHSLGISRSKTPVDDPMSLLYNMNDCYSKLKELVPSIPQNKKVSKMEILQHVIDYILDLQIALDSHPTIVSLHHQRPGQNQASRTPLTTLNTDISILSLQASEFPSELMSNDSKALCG

T4: Mouse Id3: Histidine (mouse, UniProt P41133 1-119)
T4 construct: Fusion protein made in E. coli from vector pGW07; also called m-Id3: His; Mouse Id3 (coated wells); not shown: His tag
T4 sequence: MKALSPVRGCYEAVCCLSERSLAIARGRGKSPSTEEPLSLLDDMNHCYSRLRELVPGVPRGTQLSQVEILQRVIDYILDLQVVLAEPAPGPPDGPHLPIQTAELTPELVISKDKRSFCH

T5: Human Id3: Histidine (human, UniProt Q02535 1-119 at identity 1.00))
T5 construct: Fusion protein made in E. coli from vector pGW07; also called h-Id3: His; Human Id3 (coated wells); not shown: His tag
T5 chain: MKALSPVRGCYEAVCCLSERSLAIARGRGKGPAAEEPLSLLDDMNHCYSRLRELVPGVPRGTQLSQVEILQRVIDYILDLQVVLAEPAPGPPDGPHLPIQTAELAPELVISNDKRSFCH

T6: Mouse Id1: Histidine (mouse, UniProt P20067-2 1-148, limits assumed)
T6 construct: Fusion protein made in E. coli from vector pGW07; also called m-Id1-His; not shown: His tag
T6 sequence (looked up): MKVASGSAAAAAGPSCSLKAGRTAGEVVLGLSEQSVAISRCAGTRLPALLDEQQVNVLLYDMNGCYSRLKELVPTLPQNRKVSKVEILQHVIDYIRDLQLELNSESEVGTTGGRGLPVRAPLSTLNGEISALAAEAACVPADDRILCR

T7: Human Id4: Histidine (human, UniProt P47928 1-161, limits assumed)
T7 construct: Fusion protein made in E. coli from vector pGW07; also called h-Id4: His; not shown: His tag
T7 sequence (looked up): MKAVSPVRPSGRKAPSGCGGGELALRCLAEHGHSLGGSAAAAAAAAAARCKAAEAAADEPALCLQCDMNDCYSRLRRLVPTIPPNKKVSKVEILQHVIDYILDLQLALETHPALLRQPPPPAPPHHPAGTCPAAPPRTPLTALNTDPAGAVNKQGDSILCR


Experiments:
Human Id1: Histidine [1] = target: T1, Human Id1: Histidine; assay: ELISA, Ab 0.005 µg/ml
Mouse Id2: Histidine [2] = target: T2, Mouse Id2: Histidine; assay: ELISA, Ab 0.005 µg/ml
Human Id2: Histidine [3] = target: T3, Human Id2: Histidine; assay: ELISA, Ab 0.005 µg/ml
Mouse Id3: Histidine [4] = target: T4, Mouse Id3: Histidine; assay: ELISA, Ab 0.005 µg/ml
Human Id3: Histidine [5] = target: T5, Human Id3: Histidine; assay: ELISA, Ab 0.005 µg/ml
Mouse Id1: Histidine [6] = target: T6, Mouse Id1: Histidine; assay: ELISA, Ab 0.005 µg/ml
Human Id1: Histidine [7] = target: T1, Human Id1: Histidine; assay: ELISA, Ab 0 µg/ml (blank)
Mouse Id2: Histidine [8] = target: T2, Mouse Id2: Histidine; assay: ELISA, Ab 0 µg/ml (blank)
Human Id2: Histidine [9] = target: T3, Human Id2: Histidine; assay: ELISA, Ab 0 µg/ml (blank)
Mouse Id3: Histidine [10] = target: T4, Mouse Id3: Histidine; assay: ELISA, Ab 0 µg/ml (blank)
Human Id3: Histidine [11] = target: T5, Human Id3: Histidine; assay: ELISA, Ab 0 µg/ml (blank)
Mouse Id1: Histidine [12] = target: T6, Mouse Id1: Histidine; assay: ELISA, Ab 0 µg/ml (blank)
Human Id1: Histidine [13] = target: T1, Human Id1: Histidine; assay: ELISA on coated wells, summary
Mouse Id2: Histidine [14] = target: T2, Mouse Id2: Histidine; assay: ELISA on coated wells, summary
Human Id2: Histidine [15] = target: T3, Human Id2: Histidine; assay: ELISA on coated wells, summary
Human Id4: Histidine = target: T7, Human Id4: Histidine; assay: ELISA on coated wells, summary
Mouse Id1: Histidine [16] = target: T6, Mouse Id1: Histidine; assay: ELISA on coated wells, summary

Binder	A450 (Human Id1: Histidine [1])	A450 (Mouse Id2: Histidine [2])	A450 (Human Id2: Histidine [3])	A450 (Mouse Id3: Histidine [4])	A450 (Human Id3: Histidine [5])	A450 (Mouse Id1: Histidine [6])	A450 (Human Id1: Histidine [7])	A450 (Mouse Id2: Histidine [8])	A450 (Human Id2: Histidine [9])	A450 (Mouse Id3: Histidine [10])	A450 (Human Id3: Histidine [11])	A450 (Mouse Id1: Histidine [12])	Cross-reactivity (%) (Human Id1: Histidine [13])	Cross-reactivity (%) (Mouse Id2: Histidine [14])	Cross-reactivity (%) (Human Id2: Histidine [15])	Cross-reactivity (%) (Human Id4: Histidine)	Cross-reactivity (%) (Mouse Id1: Histidine [16])
rabbit monoclonal anti-mouse/human Id3, clone #BCH-4/#6-1 (antibody, V domains shown, Rabbit IgG from a rabbit hybridoma; also called m/h Id3 MoAb 6-1) VH: QSVEESGGRLVTPGTPLTLTCTASGFSLSNVYIHWVRQAPGKGLEWIGYISDGDTARYATWAKGRFTISKTSSTTVNLKMTSLTTEDTATYFCARQGFNIWGPGTLVTVSL VL: AVLTQTPSPVSAAVGGTVSISCQSSQSVWNNNWLSWFQQKPGQPPKLLIYETSKLESGVPSRFKGSGSGTQFTLTISDVQCDDAATYYCLGGYWTTSDNNVFGGGTEVVVK	0.075 A450	0.073 A450	0.076 A450	0.295 A450	0.248 A450	0.076 A450	0.058 A450	0.058 A450	0.064 A450	0.048 A450	0.047 A450	0.061 A450					
rabbit monoclonal anti-human Id3, clone #BCH-4/#3-3 (antibody, V domains shown, Rabbit IgG from a rabbit hybridoma; also called h Id3 MoAb 3-3) VH: QSVEESGGRLVTPGTPLTLTCTVSGIDLSSYAMSWVRQAPGKGLEWIGVIFPSNNVYYASWAKGRFTISKTSTTVDLKITSPTTEDTATYFCASMGAFDSWGPGTLVTVSS VL: QVLTQTPSPVSAAVGGTVTINCQASQSIYNDNDLAWFQQKPGQPPKLLIYDASTLTSGVPSRFKGSGSGTQFTLTISDLDCDDAATYYCAARYSGNIYGFGGGTEVVVK													< 1%	< 1%	< 1%	< 1%	< 1%

From patent US20070178531A1 (BIOCHECK, published 2007)
